Positions count from the first letter of the chain named.
Legend:
[1] = biological target: T1, WbbBGT99 (Klebsiella terrigena, UniProt Q6U8B0); assay: native MS and pepsin MS/MS after NaBH4 reduction of the enzyme-Kdo adduct; format: biochemical; settings: covalent; Kdo transferred to Asp232; donor generated in situ from CTP, Kdo and KdsB; Mg; 5 min then NaBH4, room temperature
T1 construct: gene wbbB; WbbBGT99-His6 in pET28a, expressed in E. coli BL21(DE3) or ClearColi BL21(DE3); dimer in native MS
T1 sequence (Q6U8B0 entry or part of it): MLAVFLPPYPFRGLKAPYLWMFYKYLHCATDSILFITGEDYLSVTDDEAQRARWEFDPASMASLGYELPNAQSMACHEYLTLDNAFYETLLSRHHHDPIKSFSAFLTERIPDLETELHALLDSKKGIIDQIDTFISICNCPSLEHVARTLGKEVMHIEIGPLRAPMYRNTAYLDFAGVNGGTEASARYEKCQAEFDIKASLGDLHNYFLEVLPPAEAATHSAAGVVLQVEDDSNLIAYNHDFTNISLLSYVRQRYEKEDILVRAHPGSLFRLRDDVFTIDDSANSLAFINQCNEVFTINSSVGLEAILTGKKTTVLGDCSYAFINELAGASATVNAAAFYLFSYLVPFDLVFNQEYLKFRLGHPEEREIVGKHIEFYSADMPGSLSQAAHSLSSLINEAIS

[2] = biological target: the molecule itself; assay: native MS; nanoESI, positive mode, UHMR Orbitrap; aqueous ammonium acetate 200 mM, pH 7, 25 °C; +21 charge state of the dimer; before or after reaction with the CMP-Kdo reaction mix

Question: Which “native MS and pepsin MS/MS after NaBH4 reduction of the enzyme-Kdo adduct” value [1] does the source give for `Nc1ccn([C@@H]2O[C@H](COP(=O)(O)O[C@@]3(C(=O)O)C[C@@H](O)[C@@H](O)[C@@H]([C@H](O)CO)O3)[C@@H](O)[C@H]2O)c(=O)n1` [CMP-β-Kdo] here?
Answer: Asp232 is the sole residue that has been converted to homoserine

B1: WbbB_(GT99)-E158Q (domain or fragment)
chain: LAVFLPPYPFRGLKAPYLWMFYKYLHCATDSILFITGEDYLSVTDDEAQRARWEFDPASMASLGYELPNAQSMACHEYLTLDNAFYETLLSRHHHDPIKSFSAFLTERIPDLETELHALLDSKKGIIDQIDTFISICNCPSLEHVARTLGKEVMHIQIGPLRAPMYRNTAYLDFAGVNGGTEASARYEKCQAEFDIKASLGDLHNYFLEVLPPAEAATHSAAGVVLQVEDDSNLIAYNHDFTNISLLSYVRQRYEKEDILVRAHPGSLFRLRDDVFTIDDSANSLAFINQCNEVFTINSSVGLEAILTGKKTTVLGDCSYAFINELAGASATVNAAAFYLFSYLVPFDLVFNQEYLKFRLGHPEEREIVGKHIEFYSADMPGSLSQAAHSLSSLINEAIS
notes: source: ClearColi BL21 (DE3) E. coli, purified (IMAC, desalting)
Question: With B1 as the molecule, how does the “stoichiometry N” value [2] read?
Answer: 2

B2: WbbB_(GT99)-D232C (domain or fragment)
chain: B1 chain with Q157E, D231C
notes: source: ClearColi BL21 (DE3) E. coli, purified (IMAC, desalting), then reacted with the CMP-β-Kdo reaction mix
Question: Which “stoichiometry N” value [2] does the source give for B2 here?
Answer: 2

B3: WbbB_(GT99)-D232N (domain or fragment)
chain: B1 chain with Q157E, D231N
modifications: Kdo modified in ~8% after the CMP-β-Kdo reaction mix; N-terminal methionine removed with variable efficiency
notes: as for B2
Question: How did the “stoichiometry N” value [2] turn out when B3 was run?
Answer: 2
